Series [1] has as its target T1, Fis-K90A (UniProt P0A6R3 1-98, K90A). Briefly: EMSA; 50 ug/ml poly dI/dC; essentially abolished; EMSA with 50 ug/ml poly dI/dC as in ref 19; buffer, salt, pH and temperature not stated in the material. Particulars: protein: recombinant; chain copies: 2; label: 32P; 27 bp duplex.
The target of series [2] is T2, Fis (wild type) (UniProt P0A6R3 1-98). As to the kind of experiment: X-ray crystallography; 2.7 A; EMSA with 50 ug/ml poly dI/dC as in ref 19; buffer, salt, pH and temperature not stated in the material. The following applies: protein: recombinant; chain copies: 2; label: 32P; 27 bp duplex.
The target in series [3] is T2, Fis (wild type). As to the kind of experiment: EMSA; 50 ug/ml poly dI/dC; 60-fold better than F28; half-life 14 min; EMSA with 50 ug/ml poly dI/dC as in ref 19; buffer, salt, pH and temperature not stated in the material. Particulars: protein: recombinant; chain copies: 2; label: 32P; 27 bp duplex.
The target of series [4] is T1, Fis-K90A. As to the kind of experiment: EMSA; 50 ug/ml poly dI/dC; binding largely restored; EMSA with 50 ug/ml poly dI/dC as in ref 19; buffer, salt, pH and temperature not stated in the material. The following applies: protein: recombinant; chain copies: 2; label: 32P; 27 bp duplex.
The target of series [5] is T1, Fis-K90A. As to the kind of experiment: EMSA; 50 ug/ml poly dI/dC; EMSA with 50 ug/ml poly dI/dC as in ref 19; buffer, salt, pH and temperature not stated in the material. Particulars: protein: recombinant; chain copies: 2; duplex.
Series [6] deals with T1, Fis-K90A. Described as above. Particulars: protein: recombinant; chain copies: 2; label: 32P; 27 bp duplex.
In series [7] the target is T2, Fis (wild type). Briefly: EMSA; 50 ug/ml poly dI/dC; high-affinity reference, Kd in figure only; EMSA with 50 ug/ml poly dI/dC as in ref 19; buffer, salt, pH and temperature not stated in the material. Particulars: protein: recombinant; chain copies: 2; label: 32P; 27 bp duplex.
Series [8] has as its target T2, Fis (wild type). As to the kind of experiment: EMSA; 50 ug/ml poly dI/dC; 230-fold better than F29; half-life 5 min; EMSA with 50 ug/ml poly dI/dC as in ref 19; buffer, salt, pH and temperature not stated in the material. Particulars: protein: recombinant; chain copies: 2; label: 32P; duplex.
Series [9] concerns the molecule itself. As to the kind of experiment: crystal structure; Fis co-crystallized with DNA duplexes F28, F28-dI, F28-2AP and F29-dI; data collected at 100 K; molecular replacement with Fis-F1 (PDB 3IV5).
The target of series [10] is T2, Fis (wild type). Briefly: EMSA; 50 ug/ml poly dI/dC; EMSA with 50 ug/ml poly dI/dC as in ref 19; buffer, salt, pH and temperature not stated in the material. The following applies: protein: recombinant; chain copies: 2; duplex.
Series [11] concerns the target T2, Fis (wild type). Briefly: X-ray crystallography; 2.8 A; EMSA with 50 ug/ml poly dI/dC as in ref 19; buffer, salt, pH and temperature not stated in the material. The following applies: protein: recombinant; chain copies: 2; label: 32P; duplex.

B1: F28 (dsDNA)
DNA 1: AAATTTGTTTGAGCGTTGAGCAAATTT
DNA 2: AAATTTGCTCAACGCTCAAACAAATTT
B1: the binding result in [1] is recorded as “no binding”; in series [2] it was “binds”.

B2: F28-dI (dsDNA)
DNA 1: AAATTTGTTTGAGCGTTGAGCAAATTT
DNA 2: AAATTTGCTCAACGCTCAAACAAATTT
modifications: inosine replaces the guanines of the three central G/C pairs (ICI), on both strands
Turning to B2, the Kd in series [3] was less than 1 nM. The binding result in series [4] is “binds”.

B3: F30 (dsDNA)
DNA 1: AAAGCGGTTTGAATTTTGAGCCGCTTT
DNA 2: AAAGCGGCTCAAAATTCAAACCGCTTT
Turning to B3, the binding signal in series [5] came to 9 fold worse than Fis-wt.

B4: F1 (dsDNA)
DNA 1: AAATTTGTTTGAATTTTGAGCAAATTT
DNA 2: AAATTTGCTCAAAATTCAAACAAATTT
For B4, the binding signal in series [6] is ~1 fold of Fis-wt (indistinguishable). The binding result in [7] is “binds”.

B5: F29-dI (dsDNA)
DNA 1: AAATTTGTTTGGGCGCTGAGCAAATTT
DNA 2: AAATTTGCTCAGCGCCCAAACAAATTT
modifications: inosine replaces the guanines of the five central G/C pairs (IICIC), on both strands
Regarding B5, the binding signal in series [8] was roughly 8 fold worse than F1.

B6: Fis protein (natural protein)
chain: MFEQRVNSDVLTVSTVNSQDQVTQKPLRDSVKQALKNYFAQLNGQDVNDLYELVLAEVEQPLLDMVMQYTRGNQTRAALMMGINRGTLRKKLKKYGMN
notes: also called Fis-wt; wild-type Fis
Turning to B6, in series [9], the binding result was “binds”.

B7: F27 (dsDNA)
DNA 1: AAATTTGTTTGAACTTTGAGCAAATTT
DNA 2: AAATTTGCTCAAAGTTCAAACAAATTT
B7: the binding signal was ~1 fold of F1 (indistinguishable) in series [10] and 10 fold worse than Fis-wt in series [5].

B8: F28-2AP (dsDNA)
DNA 1: AAATTTGTTTGAATATTGAGCAAATTT
DNA 2: AAATTTGCTCAATATTCAAACAAATTT
modifications: 2-aminopurine in three central 2AP/T pairs (2T2), on both strands
As to B8, the binding result in series [11] is reported as “binds”.

The values above are taken from paper PMC3711457, “Control of DNA minor groove width and Fis protein binding by the purine 2-amino group” (Nucleic Acids Research, 2013).
